Experimental data reported in publication doi:10.1101/2022.11.23.517751.

Target: VZV gB[H527P] on extracellular vesicles (EVs) from BHK-21 cells (varicella-zoster virus (VZV)) (UniProt Q4JR05)
Assay: cryo-EM structure

VZV gB[H527P] on extracellular vesicles (EVs) from BHK-21 cells (from UniProt Q4JR05 72-931) (natural protein)
stoichiometry N: 3
